Test results as given in patent US20210214440A1 (Janssen / Centocor, published 2021).

Molecular target: T1, human CD8 on human pan T cells (human, UniProt P01732 22-235; P10966 22-210)
T1 construct: Native CD8 on the CD4-negative population of human pan T cells
Assay: flow cytometry, 20 nM mAb on human pan T cells
Method: Secondary antibodies were A647-conjugated goat anti human IgG Fc antibody at 2 μg/mL, and A488-conjugated mouse anti-human CD4 at 1 μg/mL in staining buffer. Live cells were also gated based on OKT8 control mAb binding. Percent CD8 positive population was calculated by percentage of CD8-positive cell count/live cell count.

T1 sequence (P01732 22-235, chain 1 of 2): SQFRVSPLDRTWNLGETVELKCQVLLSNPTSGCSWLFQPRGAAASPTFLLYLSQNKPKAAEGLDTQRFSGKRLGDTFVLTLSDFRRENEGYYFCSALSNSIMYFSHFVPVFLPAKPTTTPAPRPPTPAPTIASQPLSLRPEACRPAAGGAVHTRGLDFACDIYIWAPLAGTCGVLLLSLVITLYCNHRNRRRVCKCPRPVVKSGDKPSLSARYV
T1 sequence (P10966 22-210, chain 2 of 2): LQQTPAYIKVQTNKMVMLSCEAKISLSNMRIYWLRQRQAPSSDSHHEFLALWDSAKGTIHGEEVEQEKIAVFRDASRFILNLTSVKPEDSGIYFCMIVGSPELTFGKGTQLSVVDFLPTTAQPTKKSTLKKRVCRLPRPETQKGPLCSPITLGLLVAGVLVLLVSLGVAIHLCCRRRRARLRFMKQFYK

Row | Binder | Cell Binding to Human PanT Signal/Background (of CD4 negative population)
1 | CD8B347 (antibody, human IgG1, kappa, full-length human IgG1, kappa) heavy: not shown light: DIQMTQSPASLSASVGETVTITCRASGNIHNYLAWYQQKQGKSPQLLVFNAETLADGVPSRFSGSGSGTQFSLKINSLQPEDFGTYYCQHFWNNPLTLGAGTKLELKRTVAAPSVFIFPPSDEQLKSGTASVVCLLNNFYPREAKVQWKVDNALQSGNSQESVTEQDSKDSTYSLSSTLTLSKADYEKHKVYACEVTHQGLSSPVTKSFNRGEC | 1200
2 | CD8B182 (antibody, human IgG1, kappa, V domains shown, full-length human IgG1, kappa) VH: EVQLQQSGAALAKPGTSVKMSCKASGYTFTSYWMNWVRQRPGQGLEWIGAVNPTNYYTEYIQKFKDKAILTADKSSSTAYMHLSGLTSEDSAVYYCARSGLYNTNHLAWFAYWGQGTTVTVSS VL: DIKMTQSPASLSASVGETVTITCRASENIHNYLAWYQQIQGKSPQLLVYNAKTLANGVPSRFSGSASGTQFSLTINSLQPEDFGSYYCQHFWTTPLTFGAGTKLELKR | 1490
3 | CD8B240 (antibody, human IgG1, kappa, full-length human IgG1, kappa) heavy: not shown light: DIVMTQSPATLSVTPGDRVSLSCRASQSISDFLHWYQQKSHESPRLLIKYASQSISGIPSRFSGSGSGSDFTLTINSVEPEDVGVYYCQNGHSFPYTFGSGTKLEIKRTVAAPSVFIFPPSDEQLKSGTASVVCLLNNFYPREAKVQWKVDNALQSGNSQESVTEQDSKDSTYSLSSTLTLSKADYEKHKVYACEVTHQGLSSPVTKSFNRGEC | 1310
4 | CD8B268 (antibody, human IgG1, kappa, V domains shown, full-length human IgG1, kappa) VH: QVQLQQSGAELVKPGASVKLSCKASGYTFTVYTIHWVKQRSGQGLEWIGWFYPGSGNIKYNEKFKDKATLTADKSSHTVYMELSRLTSEDSAVYFCARHEDNHYYDGNSWFAYWGQGTLVTVSA VL: DIQMTQSPASLSASVGQTVTITCRASGNIHNYLAWFQQKQGKSPQLLVYNAKTLADGVPSRFSGSGSGTQYSLKINSLQTEDFGNYYCQHFWNTPYTFGGGTKLEIKR | 1170
5 | CD8B350 (antibody, human IgG1, kappa, V domains shown, full-length human IgG1, kappa) VH: EVQLQQSGAELAKPGTSVKMSCKASGYTFAAYWINWLKQRPGQGLEWIGSINPSNGYTEYSQKFKDKAILTADKSSSTAYMQLSSLTSEDSAVYYCSRSGLYYTNHLAWCPYWGQGTTVTVSS VL: DIVMTQSPASLSASVGETVTITCRASGNIHNYLAWYQQKQGKSPQVLVYNAETLADSVPSRFSGSGSGTQFSLKINSLQPEDFGNYYCQHFWNSPLTFGGGTKLEIKR | 537
6 | CD8B273 (antibody, human IgG1, kappa, V domains shown, full-length human IgG1, kappa) VH: QVQLQQSGAELVKPGASVKLSCKASGYTFTEYTIHWVKQRSGQGLEWIGWFYPGTGSIKYNEKFKDKATLTADKSSHTVYMELSKLTSEDSAVYFCARHEDNHYYDGNSWFAYWGQGTLVTVSA VL: DIQMTQSPASLSASVGETVTITCRASGNIHNYLAWFQQKQGKSPQLLVYNAKTLADGVPSRFSGSGSGTQYSLKINSLQAEDFGSYYCQHFWSTPYTFGSGTKLEIKR | 938
7 | CD8B364 (antibody, human IgG1, kappa, V domains shown, full-length human IgG1, kappa) VH: QVQLQQPGAELVKPGASVKLSCKASGYTFTSYWMHWVNRRPGQGLEWIGEINPSNGDSYYNEKFKRKATLTVDISSSTAYMQLSSLTSEDSAVYYCTRSMYYDGRAGAYWGQGTTVTVSS VL: DIVLTQSPASLSVATGEKVTIRCITSTDIDDDMNWYQQKPGEPPKLLISEGNTLRPGVPSRFSSSGYGTDFVFTIENTLSEDVADYYCLQSDNMPLTFGAGTKLELKR | 1560
8 | CD8B361 (antibody, human IgG1, kappa, V domains shown, full-length human IgG1, kappa) VH: EVQLQQSGPELVKPGNSVKMSCKASGYTFTDYYMDWVKQSHGTSLEWIGYIYPNNGDTRYNQKFKDKATLTVDKSSSTAYMELHSLTSEDSAVFYCARSIYYDHGGGFPYWGQGTLVTVSA VL: DIVMTQSQKFMSTSVGDRVSVTCKASQNVGTYVAWYQQKPGQSPKALIYSASYRYSGVPDRFTGSGSGTDFTLTINNVQSEDLAEYLCQQYNSYPTFGGGTRLEIKR | 1050
9 | CD8B356 (antibody, human IgG1, kappa, V domains shown, full-length human IgG1, kappa) VH: DVQLQESGPGLVKPSQSLSLTCSVTGYSITSGYYWNWIRQFPGNKLEWMGYISYDGSNNYNPSLKNRISITRDTSKNQFFLKLNSVTTEDTATYYCVRNHGDAMDYWGQGTSVTVSS VL: DIVLTQSQKFMSTTVGDRVSITCKASQNVGTAVAWYQQKPGQSPKLLIYSASYRYTGVPDRFTGSGSGTHFTLTISNMQSEDLADYFCQQYSSYLTFGSGTKLEIKR | 777
10 | CD8B269 (antibody, human IgG1, kappa, V domains shown, full-length human IgG1, kappa) VH: DVQLQESGPGLVKPSQSLSLTCSVTGYSITSGYYWNWIRQFPGNKLEWMGYISYDGSNNYNPSLKNRISITRDTSKNQFFLKLNSVTTEDTATYYCVRNHGDAMDHWGQGTTLTVSS VL: DIVMTQSQKFMSTSVGDRVRVTCKASQNVGTDVAWYQQKPGQSPKALIYSASYRYSGVPDRFTGSGSGTDFTLTISDVQSEDLAEYFCQQYKSYPLTFGAGTKLELKR | 26
11 | CD8B200 (antibody, human IgG1, kappa, V domains shown, full-length human IgG1, kappa) VH: EVQLQQSGAELVKPGASVKLSCKASGYTFTNYWIHWVKQRPGQGLEWIGNIDPSDSETHYNQKFKDKATLTVDKSSSTAYMQLISLTSEDSAVYYCASGLTGTGYYWGQGTTLTVSS VL: DIQMTQTTSSLSASLGDRVTITCRASQDISPYLNWYQQKPEGTIKLLIYYTSKLHSGVPSRFSGSGSGTDYSLTISNLEQEDIATYFCQQDNTLPYTFGSGTKLELKR | 1990
12 | CD8B246 (antibody, human IgG1, kappa, V domains shown, full-length human IgG1, kappa) VH: QVQLKESGPGILKPSQTLSLTCSFSGFSLSTSGMNVGWIRQPSGKGLEWLAHIWWDDDKYYNPSLKSQLTISKDTSRNQVFLKITSVDTADTATYYCARRGNYGNYEFAYWGQGTTLTVSS VL: DIQMTQTTSSLSASLGDRVTISCRASQDIRNYLNWYQQKPDGTVKLLIYHTSRLHSGVPSRFSGSGSGTDYSLTISNLEQEDIATYFCQQGNTLPWTFGAGTKLELKR | 1110
13 | CD8B270 (antibody, human IgG1, kappa, V domains shown, full-length human IgG1, kappa) VH: QVQLQQPGAELVKPGASVMLSCKASGYTFTNYWMHWVKQRPGQGLEWIGNIDPSDSETHYNQKFKDKATLTVDKSSSTAYMQLSSLTSEDSAVYYCASGLTGTGYYWGQGTTLTVSS VL: DIQMTQTTSSLSASLGDRVTITCRASQDIRPYLNWYQQKPEGTIKLLIYFTSKLHSGVPSRFSGSGSGTDYSLTISNLEQEDIATYFCQQDNTLPYTFGSGTKLELKR | 2500

The remaining lines, values ahead:

Row | Cell Binding to Human PanT Signal/Background (of CD4 negative population) | Binder
14 | 37 | CD8B251 (antibody, human IgG1, kappa, V domains shown, full-length human IgG1, kappa) VH: QVQLKGSGPGLVQPSQSLSITCTVSGFSLTTYAVHWVRQSPGKGLEWLGVIWSGGSTDYNAAFISRLSISKDNSKSQVFFKMNSLQADDTAIYYCARHSYYHYNAMDNWGQGTSVTVSS VL: DIKMTQSQKFMSTTVGDRVSITCKASQNVGTAVAWYQQKPGQSPKLLIYSASNRYTGVPDRFTGSGSGTDFTLTISNMQSEDLADYFCQQYSSYPFTFGSGTKLEIKR
15 | 2440 | CD8B191 (antibody, human IgG1, kappa, full-length human IgG1, kappa) heavy: not shown light: DIVLTQSPATLSVTPGDRVSLSCRASQSISDFLHWYQQKSHESPRLLIKYASQSISGIPSRFSGSGSGSDFTLTINSVEPEDVGVYYCQNGHSFPYTFGSGTKLEIKRTVAAPSVFIFPPSDEQLKSGTASVVCLLNNFYPREAKVQWKVDNALQSGNSQESVTEQDSKDSTYSLSSTLTLSKADYEKHKVYACEVTHQGLSSPVTKSFNRGEC
16 | 827 | CD8B213 (antibody, human IgG1, kappa, V domains shown, full-length human IgG1, kappa) VH: EVQLQQSGPELVKPGDSMKMSCKASGYIFTDYYMDWVKQSHGKSLEWIGYIYPNNGITSYNQKFKGRATLTIDKSSSTAYMELHSLTSEDSAVYYCARSIYYDHGGGFPYWGQGTSVTVSS VL: DIVLTQSQKFMSTSVGDRVSVTCKASQNVDKYVAWYQQKPGQSPKALIYSASYRYSGVPDRFTGSGSGTDFTLTISNVQSEDLAEYFCQQYNTYPSFGSGTKLEMKR
17 | 911 | CD8B271 (antibody, human IgG1, kappa, V domains shown, full-length human IgG1, kappa) VH: DVQLQESGPGLVAPSQSLSITCTVSGFSLSIYSIHWVRQPPGKGLEWLGMIWGGGDTDYNSALKSRLSISKDNSESQVFLKMNSLQTDDTAMYYCARNPHYYGGTYEYFDVWGTGTTVTVSS VL: DIQMTQTTSSLSASLGDRVTISCSASQGISNYLNWYQQKPDGTVKLLIYDTSILYSGVPSRFSGSGSGTDYSLTISNLEPEDVATYYCQQYSNLPYTFGSGTKLEIKR
18 | 923 | CD8B304 (antibody, human IgG1, kappa, V domains shown, full-length human IgG1, kappa) VH: QVTLKESGPGILKPSQTLSLTCSFSGFSLSTSGMNVGWIRQPSGKGLEWLAHIWWDDDKYYNPSLKSQLTISKDTSRNQVFLKITSVDTADTATYYCARRGNYGNYEFAYWGQGTTVTVSS VL: DIQMTQTTSSLSASLGDRVTISCRASQDIRNYLNWYQQKPDGTVKLLIYHTSRLHSGVPSRFSGSGSGTDYSLTISNLDQEDIATYFCQQGNTLPWTFGAGTKLELKR
19 | 1090 | CD8B312 (antibody, human IgG1, kappa, V domains shown, full-length human IgG1, kappa) VH: QVQLQQPGADLVKPGASVKLSCKASGYTFTSFWMHWVKQRPGQGLEWIGNVDPSDSQTHYNQKFKDKATLTVDKSSNTAYMQLSSLTSEDSAVYYCARSTYYRYDGPFTYWGQGTTVTVSS VL: DIVLTQSPATLSVTPGDSVSLSCRASQSINNNLHWYQQKSHESPRLLIKYTSQSISGIPSRFSGSGSGPDFTLSINSVETEDFGMYFCQQSNSWPLTFGGGTKLEIKR
20 | 1180 | CD8B303 (antibody, human IgG1, kappa, V domains shown, full-length human IgG1, kappa) VH: QVQLKESGPGLVAPSQSLSITCTVSGFSLSIYSIHWVRQPPGKGLEWLGMIWGGGSTDYNSTLNSRLSIIKDNSKSQVFLKMNSLQTDDTAMYYCARNPHHYGGSTGAMDYWGQGTTVTVSS VL: DVQMIQSPSSLSASLGGTVTITCKASQDIKKYMAWYQHKPGKGPRLLIHYTSSLQPGIPSRFSGSGSGRDYYFSISNLEPEDIATYFCLQYDNLFTFGSGTKLELKR
